Source: the supplement of paper PMC7125110
± gives the standard error. This sample holds only a part of the variants without activity.

B1: glmS ribozyme (parent)
chain: AUAAAAGCGCCAGAACUACAGAAAUGUAGUUGACGAGGAGGAGGUUUAUCGAAUUUUCGGCGGAUGCCUCCAAA

Assays:
Conditions in all cases: with glucosamine-6-phosphate
glucosamine-6-phosphate [1] = variants of: B1; assay: self-cleavage kobs at 160 uM GlcN6P; higher = faster cleavage; RNA array
Method in brief: (§1)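 Sequenced MiSeq chips were the platform: E. coli RNA polymerase transcribed barcoded ribozyme variants on them in situ, and a hybridised Cy3 probe tracked these at 37 °C. After glucosamine-6-phosphate (40 μM to 10 mM) in HEPES/KCl/Mg(OAc)2 buffer was flowed in, tiles were imaged over ~14 h. Signals normalised to baseline and to non-cleaving reference variants were reduced to per-tile medians and fit to one- or two-exponential decays to obtain kobs. kcat and KM were derived through weighted Michaelis–Menten fits across concentrations.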

glucosamine-6-phosphate [2] = variants of: B1; assay: self-cleavage kobs at 640 uM GlcN6P; higher = faster cleavage; RNA array
Method in brief: as §1

glucosamine-6-phosphate [3] = variants of: B1; assay: self-cleavage kobs at 2500 uM GlcN6P; higher = faster cleavage; RNA array
Method in brief: as §1

glucosamine-6-phosphate [4] = variants of: B1; assay: self-cleavage kobs at 10000 uM GlcN6P; higher = faster cleavage; RNA array
Method in brief: as §1

Variant	self-cleavage kobs at 160 uM GlcN6P (glucosamine-6-phosphate [1])	self-cleavage kobs at 640 uM GlcN6P (glucosamine-6-phosphate [2])	self-cleavage kobs at 2500 uM GlcN6P (glucosamine-6-phosphate [3])	self-cleavage kobs at 10000 uM GlcN6P (glucosamine-6-phosphate [4])
AUAAAAGCGCCGGAGCUACAGAAAUGUAAUUCACGAUGAGGAGGUUUAUCGAAUUUUCGGCGGAUGCCUCCAAA [A12G A15G G29A G32C G37U]	< 1e-05 s⁻¹	–	–	–
AUAAAAGCGCCCGAAGUACAGAAAUGUAGUUGACGAGGAGGAGGUUUAUCGAAUUUUCGGCGGAUGCCUUCAAA [A12C C16G C70U]	0.000215 ± 8.1e-05 s⁻¹	0.000259 ± 9.1e-05 s⁻¹	0.00151 ± 0.00044 s⁻¹	–
AUAAAAGCGCCGGAACUACAGAAAUGUAGUUGACGAGGAUGAGGUUUAUCGAGUUUUCGGCGGAUGUCUCCAAA [A12G G40U A53G C67U]	< 1e-05 s⁻¹	< 1e-05 s⁻¹	–	–
AUAAAAGCGCCCGAACUACAGAAAUGUAGUUGACGAGGAGGAGGUUUAUCGAAUUUUCUGCGGAUGCCUCCAAA [A12C G59U]	< 1e-05 s⁻¹	–	< 1e-05 s⁻¹	< 1e-05 s⁻¹
AUAAAAGCGCUAGAACUACAGAAAUGUAGUUGACGAGGAGGAGUUUUAUCGAAUUUUCGAGGGAUGCCUCCAAA [C11U G44U G60A C61G]	< 1e-05 s⁻¹	< 1e-05 s⁻¹	< 1e-05 s⁻¹	< 1e-05 s⁻¹
AUAAAAGCGCCCGAACUACAGAAAUGUAGUUGAUGAGGAGGAGGUUUAUCGAAUUUUCGGCGGAUGCCUCCAAA [A12C C34U]	< 1e-05 s⁻¹	–	< 1e-05 s⁻¹	< 1e-05 s⁻¹
AUAAAAGCGCUAGAACUACAGAAAUGUAGUUGACGACGUGGAGGUUGAUCGAAUUUUCGGCGGAUGCCUCCAAA [C11U G37C A39U U47G]	< 1e-05 s⁻¹	–	–	–
AUAAAAGCGCCCGAACUACAGAAAUGUAGUUGACGAGGAGGAGGUUUAUCGAAUUUUCGGCGCAUCCCUCCAAA [A12C G63C G66C]	< 1e-05 s⁻¹	< 1e-05 s⁻¹	–	–
AUAAAAGCGCCCGAACUACAGAAAUGUAGUUGACUAGGAGUAGGUUUAUCGAAUUUUCGGCGGAUGCCUCCAAA [A12C G35U G41U]	< 1e-05 s⁻¹	< 1e-05 s⁻¹	–	–
AUAAAAGCGCUAGAACUACAGAAAUGUAGUUGACGAGGAGGAUGUUUGUCGAAUUUUCGGCGGAUGCCUCGAAA [C11U G43U A48G C71G]	< 1e-05 s⁻¹	< 1e-05 s⁻¹	< 1e-05 s⁻¹	–
AUAAAAGCGCUAGAACUACAGAAAUGUAGUUGACGAGGUGGAGGUUUAGCGAAUUUUCGGCGGAUGCCUCCAAA [C11U A39U U49G]	< 1e-05 s⁻¹	< 1e-05 s⁻¹	< 1e-05 s⁻¹	–
AUAAAAGCGCCGGAACUACAGAAAUGUAGUUAACUAGGAGGAGGUUUAUCGAAUUUUCGGCGGAUGCGUCCAAA [A12G G32A G35U C68G]	< 1e-05 s⁻¹	–	–	–
AUAAAAGCGCUAGAACUACAGAAAUGUAGUUGACGAGGAGGAGGUAUAUCGAAGUUUCGGCGGAUGCCUCCAAA [C11U U46A U54G]	< 1e-05 s⁻¹	–	4.93e-05 ± 1.7e-05 s⁻¹	–
AUAAAAGCGCUAUAACUACAGAAAUGUAGUUGACGAGGAGGAGGUUUAGCGAAUUUUCGGCGGAUGCCUCCAAA [C11U G13U U49G]	< 1e-05 s⁻¹	< 1e-05 s⁻¹	< 1e-05 s⁻¹	–
AUAAAAGCGCCCGAACUACAGAAAUGUAGUUGACGAAGAGGAGGUUUAUCGGAUUUUCGGCGGAUGCCUCCAAA [A12C G37A A52G]	< 1e-05 s⁻¹	–	5.63e-05 ± 1.7e-05 s⁻¹	–
AUAAAAGCGCUAGAACUACAGAAAUGUAGUUGACGAGGAGGAGGUUAAUCGAAUUUUCGGCGGAUGCCUCCAAA [C11U U47A]	9.6e-05 ± 3.1e-05 s⁻¹	0.000187 ± 4.3e-05 s⁻¹	0.0014 ± 0.00025 s⁻¹	0.0016 ± 0.00047 s⁻¹

Variant	self-cleavage kobs at 160 uM GlcN6P (glucosamine-6-phosphate [1])	self-cleavage kobs at 640 uM GlcN6P (glucosamine-6-phosphate [2])	self-cleavage kobs at 2500 uM GlcN6P (glucosamine-6-phosphate [3])	self-cleavage kobs at 10000 uM GlcN6P (glucosamine-6-phosphate [4])
AUAAAAGCGCCCGAACUACAGAAAUGUAGUUGACGAGGAGGAGGUUUAAAGAAUUUUCGGCGGAUGCCUCCAAA [A12C U49A C50A]	< 1e-05 s⁻¹	–	< 1e-05 s⁻¹	–
AUAAAAGCGCCCGAGCUACAGAAAUGUAGUUGACGAGGAGGAGGUUUAUGGAAUUGUCGGCGGAUGGCUCCAAA [A12C A15G C50G U56G C67G]	0.000121 ± 2.8e-05 s⁻¹	0.000141 ± 3.7e-05 s⁻¹	0.000133 ± 3.1e-05 s⁻¹	4.37e-05 ± 1.2e-05 s⁻¹
AUAAAAGCGCUAGAACUACAGAAAUGUAGUUGACGAGGAGGUGGUUUAUCGAAUUUUCGGCGGAUGCAUCCAAA [C11U A42U C68A]	< 1e-05 s⁻¹	–	< 1e-05 s⁻¹	–
AUAAAAGCGCCGGAACUACAGAAAUGUAGUUGAUGAGGAGAAGGUUUAUCGAAUUUUCGGCGGAUGCCUCCAAA [A12G C34U G41A]	< 1e-05 s⁻¹	< 1e-05 s⁻¹	–	–
AUAAAAGCGCUAGAACUACAGAAAUGUAGUUGACGAGGAGGUGGUUUAUCGAAUUUUCGGCGGAUGCCUCCAAA [C11U A42U]	< 1e-05 s⁻¹	< 1e-05 s⁻¹	< 1e-05 s⁻¹	–
AUAAAAGCGCUAGAACUACAGAAAUGUAGUUGACGAGGAGGAGGUUUAUCGAAUUUUCGGCGGACGCCUCCAAA [C11U U65C]	< 1e-05 s⁻¹	–	–	–
AUAAAAGCGCUAGAACUACAGAAAUGUAGUCGACGAGGUGGAGGUUUAUCGCAUUUUCGGCGGGUGCCUCCAAA [C11U U31C A39U A52C A64G]	< 1e-05 s⁻¹	–	< 1e-05 s⁻¹	–
AUAAAAGCGCCCGAUCUACAGAAAUGUAGUUGACGAGGAGGAGGUUUAUCGAAUGUUCGGCGGAUGUCUCCAAA [A12C A15U U55G C67U]	4.96e-05 ± 2.1e-05 s⁻¹	0.0001 ± 2.8e-05 s⁻¹	0.000447 ± 0.00013 s⁻¹	–
AUAAAAGCGCCGGAACUACAGAAAUGUAGUUGACGAGGAGUAGGUUUAUUGAAUUUUCGGCGGAUGCCUCCAAA [A12G G41U C50U]	< 1e-05 s⁻¹	< 1e-05 s⁻¹	< 1e-05 s⁻¹	–
AUAAAAGCGCCCGAACUACAGAAAUGUAGUUGACGAGGAGCAGGUUUAACGAAUUUUCGGCGGAUGCCUCCAAA [A12C G41C U49A]	< 1e-05 s⁻¹	< 1e-05 s⁻¹	< 1e-05 s⁻¹	–
AUAAAAGCGCCCGAACUACAGAAAUGUAGUUGACGAGGGGGAGGUUUAUCGAAUUUUCGGCGGAUGCCUUCAAA [A12C A39G C70U]	0.000758 ± 0.00028 s⁻¹	–	–	–
AUAAAAGCGCCGGAACUACAGAAAUGUAGUUGACGCGGAGGAGGUUUAUCGAAUUUUCGGCGGAUCCGUCCAAA [A12G A36C G66C C68G]	< 1e-05 s⁻¹	–	–	–
AUAAAAGCGCCCGAACUACAGAAAUGUAGUUGACGAGGUGGAGGUAUAUGGAAUUUUCGGCGGAUGCCUCCAAA [A12C A39U U46A C50G]	< 1e-05 s⁻¹	< 1e-05 s⁻¹	< 1e-05 s⁻¹	–
AUAAAAGCGCCCGAAUUACAGAAAUGUAGUUGACGAGGAGGAGGUUUAUCGAGUUUUCGGCGGAGGCCUCCAAA [A12C C16U A53G U65G]	9.62e-05 ± 2.4e-05 s⁻¹	0.000453 ± 9.1e-05 s⁻¹	0.000899 ± 0.00019 s⁻¹	–
AUAAAAGCGCCCGAACUACAGAAAUGUAGUUGACCAGGAGGAGGUUUAUCGAAUUUUCGGCGGAUGCCUCCAAA [A12C G35C]	< 1e-05 s⁻¹	< 1e-05 s⁻¹	< 1e-05 s⁻¹	–
